Assay results from patent US20200190168A1 (US Dept. of Health and Human Services, published 2020).

Assays:
[1] = target: T1, gp350 B95-8 (2-425) D296R Avi-His (Epstein Barr Virus (B95-8), UniProt P03200 2-425); test: flow cytometry staining of IgG+ B cells in human PBMCs, co-stained with anti-CD21
T1 construct: also called D296R gp350 probe; D296R mutant

[2] = target: T2, gp350 B95-8 (2-425) D296R/I160R Avi-His (Epstein Barr Virus (B95-8), UniProt P03200 2-425); test: as above
T2 construct: also called gp350 D296R/I160R probe

[3] = target: gp350 B95-8 (2-425) D296R/P158R Avi-His (Epstein Barr Virus (B95-8), UniProt P03200 2-425); test: biolayer interferometry (Octet), CR2-Ig on protein A biosensors
[4] = target: T3, gp350 B95-8 (2-425) D296R/P158N*/I160T Avi-His (Epstein Barr Virus (B95-8), UniProt P03200 2-425); test: as above
T3 construct: also called D296R/P158N/I160T (glycan addition at 158)

[5] = target: T2, gp350 B95-8 (2-425) D296R/I160R Avi-His; test: as above
[6] = target: gp350 B95-8 (2-425) D296R/P158R/I160R Avi-His (Epstein Barr Virus (B95-8), UniProt P03200 2-425); test: as above

Binder	binding result [1]	binding result [2]	binding result [3]	binding result [4]	binding result [5]	binding result [6]
CR2 (complement receptor 2, CD21) on IgG+ B cells of human PBMCs (receptor, whole, on cells; also called gp350 receptor) ISCGSPPPILNGRISYYSTPIAVGTVIRYSCSGTFRLIGEKSLLCITKDKVDGTWDKPAPKCEYFNKYSSCPEPIVPGGYKIRGSTPYRHGDSVTFACKTNFSMNGNKSVWCQANNMWGPTRLPTCVSVFPLECPALPMIHNGHHTSENVGSIAPGLSVTYSCESGYLLVGEKIINCLSSGKWSAVPPTCEEARCKSLGRFPNGKVKEPPILRVGVTANFFCDEGYRLQGPPSSRCVIAGQGVAWTKMPVCEEIFCPSPPPILNGRHIGNSLANVSYGSIVTYTCDPDPEEGVNFILIGESTLRCTVDSQKTGTWSGPAPRCELSTSAVQCPHPQILRGRMVSGQKDRYTYNDTVIFACMFGFTLKGSKQIRCNAQGTWEPSAPVCEKECQAPPNILNGQKEDRHMVRFDPGTSIKYSCNPGYVLVGEESIQCTSEGVWTPPVPQCKVAACEATGRQLLTKPQHQFVRPDVNSSCGEGYKLSGSVYQECQGTIPWFMEIRLCKEITCPPPPVIYNGAHTGSSLEDFPYGTTVTYTCNPGPERGVEFSLIGESTIRCTSNDQERGTWSGPAPLCKLSLLAVQCSHVHIANGYKISGKEAPYFYNDTVTFKCYSGFTLKGSSQIRCKADNTWDPEIPVCEKETCQHVRQSLQELPAGSRVELVNTSCQDGYQLTGHAYQMCQDAENGIWFKKIPLCKVIHCHPPPVIVNGKHTGMMAENFLYGNEVSYECDQGFYLLGEKKLQCRSDSKGHGSWSGPSPQCLRSPPVTRCPNPEVKHGYKLNKTHSAYSHNDIVYVDCNPGFIMNGSRVIRCHTDNTWVPGVPTCIKKAFIGCPPPPKTPNGNHTGGNIARFSPGMSILYSCDQGYLLVGEALLLCTHEGTWSQPAPHCKEVNCSSPADMDGIQKGLEPRKMYQYGAVVTLECEDGYMLEGSPQSQCQSDHQWNPPLAVCRSRSLAPVLCGIAAGLILLTFLIVITLYVISKHRARNYYTDTSQKEAFHLEAREVYSVDPYNPAS	binds	no binding	–	–	–	–
CR2-Ig (chimeric molecule of CR2 SCR1-2 domain and IgG Fc region) (Fc fusion, domain: SCR1-2; not shown: IgG Fc region) ISCGSPPPILNGRISYYSTPIAVGTVIRYSCSGTFRLIGEKSLLCITKDKVDGTWDKPAPKCEYFNKYSSCPEPIVPGGYKIRGSTPYRHGDSVTFACKTNFSMNGNKSVWCQANNMWGPTRLPTCVSVFPLE	–	–	no binding	no binding	no binding	no binding
